This assay deals with human CD16 receptor (FcgammaRIIIa) (human) (UniProt P08637). As to the kind of experiment: flow cytometry on NK cells; competition with 3G8-PE; antibody at 50 µg/ml.
Sequence of human CD16 receptor (FcgammaRIIIa) (human) (P08637 17-254): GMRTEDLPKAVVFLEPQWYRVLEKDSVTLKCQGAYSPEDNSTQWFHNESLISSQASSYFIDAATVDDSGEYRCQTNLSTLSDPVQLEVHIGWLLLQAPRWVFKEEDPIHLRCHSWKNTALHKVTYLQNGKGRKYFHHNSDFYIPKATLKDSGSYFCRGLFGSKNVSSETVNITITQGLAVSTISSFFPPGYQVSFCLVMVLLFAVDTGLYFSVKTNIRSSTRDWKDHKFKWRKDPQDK

Substance Rituxan® (antibody) registered a binding percentage (100% = total inhibition of 3G8 binding) of 18.5%.

These data come from patent publication US20100098706A1.
